The text below walks through data of PMC7092949 (Biochemical and Biophysical Research Communications, 2004).

This assay deals with T1, HR-N (SN50) peptide of the SARS-CoV spike protein (SARS-CoV, UniProt P59594 903-952).
T1 peptide: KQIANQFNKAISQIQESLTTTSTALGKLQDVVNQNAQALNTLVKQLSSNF
Kind of assay: circular dichroism. On the technique in general: Circular dichroism is the unequal absorption of left and right circularly polarised light.

Regarding LGDISGINASVVNIQKEIDRLNEVAKNLNESLIDLQELGK [HR-C (SC40) peptide of the SARS-CoV spike protein], the binding result is reported as “binds”.
